Test results from patent US6642368B1, “Programmed cell death and caspase-12” (The General Hospital Corporation, priority 1998, dated 2003).

Tests used:
caspase-12Δ2 = molecular target: T1, caspase-12Δ2 (Mus musculus, UniProt O08736); experiment: Inhibition of cleavage of pro-caspase-12 by purified caspase-12Δ2; assay type: biochemical; details: preincubation 1 mM DTNB 25° C. 60 min or 2 mM iodoacetamide 0° C. 60 min
T1 construct: made in house; host or cells: E. coli BL21(DE3) pLys
Method: ICE, casp-2 and casp-3 were cloned into a pET-15b vector (Novagen) and their expression was induced in the presence of 0.2-0.3 mM IPTG (Wang, S., et a., J. Biol. Chem. 271:20580-20587 (1996); Cryns, V. L., et al., J. Biol. Chem. 271:31277-31282 (1996)). Bacterial lysates containing the ICE-like proteases were prepared as described (Wang, S., et al., J. Biol. Chem. 271:20580-20587 (1996); Cryns, V. L., et al., J. Biol. Chem. 271:31277-31282 (1996)). [^35S]-labeled proteins were prepared by in vitro transcription and translation using a TNT coupled reticulocyte lysate system (Promega) and [^35S]methionine (Amersham). Labeled proteins were incubated at 37° C. with purified caspase-12Δ2 or at 30° C. with E. coli lysates containing the caspase family members. The reaction mixture contained 25 mM Hepes (pH 7.5) with 5 mM EDTA, 5 mM dithiothreitol, 10% sucrose, 10 μg/ml leupeptin and 250 μM phenylmethylsulfonyl fluoride. Amount of proteins used for cleavage reaction were: 0.1 μg for partially purified caspase-12Δ2, 25-70 μg for E. coli lysate. […] Cleavage products were analyzed by either 10- or 15% SDS-polyacrylamide gel electrophoresis. […]

[1] = tested on: T2, pro-caspase-12 (caspase-12L, full-length precursor, 419 residues, 48 kDa)
T2 sequence: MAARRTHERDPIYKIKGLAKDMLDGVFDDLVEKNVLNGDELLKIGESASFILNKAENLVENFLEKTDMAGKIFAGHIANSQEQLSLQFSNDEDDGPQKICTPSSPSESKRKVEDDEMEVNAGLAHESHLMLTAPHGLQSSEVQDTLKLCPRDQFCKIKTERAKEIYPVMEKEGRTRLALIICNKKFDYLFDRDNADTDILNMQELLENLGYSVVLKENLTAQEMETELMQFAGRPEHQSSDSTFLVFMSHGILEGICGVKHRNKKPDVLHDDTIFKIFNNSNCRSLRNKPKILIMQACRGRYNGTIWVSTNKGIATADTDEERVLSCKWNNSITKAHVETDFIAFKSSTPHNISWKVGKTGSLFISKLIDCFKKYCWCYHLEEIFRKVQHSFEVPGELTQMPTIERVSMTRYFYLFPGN

[2] = tested on: T3, caspase-12Δ (Gly95-Asn419 of caspase-12L, with an artificial initiation codon), [35S]-labeled
T3 sequence: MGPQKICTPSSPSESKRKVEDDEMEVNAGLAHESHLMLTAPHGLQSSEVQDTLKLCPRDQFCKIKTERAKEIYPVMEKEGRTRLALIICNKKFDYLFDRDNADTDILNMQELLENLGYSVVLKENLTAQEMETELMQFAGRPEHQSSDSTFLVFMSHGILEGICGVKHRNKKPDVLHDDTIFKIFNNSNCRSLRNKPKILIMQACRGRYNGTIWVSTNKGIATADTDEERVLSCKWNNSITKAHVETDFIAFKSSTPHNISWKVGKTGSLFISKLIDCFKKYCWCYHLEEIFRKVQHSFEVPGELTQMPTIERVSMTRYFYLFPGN

Rat-1/bcl-2 = experiment: Effect of cell death suppressor bcl-2 on caspase-12 killing activity; assay type: cell-based
Method: FIGS. 5A-5B. Effect of cell death suppressors on the killing activity of caspase-12. […] Cell death was assayed as described in FIG. 4C. […] The data from transfection of the parental cell line, Rat-1 (FIG. 4C), are included in the figures for comparison. The lacZ construct was also used for transfection as a control.
To determine if expression of bcl-2 and crmA can inhibit apoptosis induced by casp-12 overexpression, casp-12L-lacZ fusion construct was transfected into stable cell lines of Rat-1 that overexpresses either bcl-2 or crmA (Miura, M., et al., Cell 75:653-660 (1993)). Cell death was assayed as described above (Example 3). […] The magnitude of the bcl-2 suppression against toxicity of casp-12 overexpression was about 10% (60% for Rat-1, 50% for Rat-1/bcl-2) which is much smaller than that observed for ICE and casp-2 (FIG. 5A; Wang, L., et al., Cell 78:739-750 (1994)).

Rat-1 cells = experiment: Cell death induced by transient overexpression of lacZ fusion constructs, X-gal staining; assay type: cell-based; details: lacZ fusion construct, 24 hr after transfection
Description: FIGS. 4A-4C. Cell death induced by overexpression of caspase-12. […] The round cells expressing the casp-12L-lacZ fusion proteins show condensed and fragmented nuclei. […] The data shown are the percentage of round blue cells among total number of blue cells counted. In each transfection, over 200 blue cells were randomly chosen and counted. The data of Rat-1 cells collected from at least three independent experiments. The constructs used were: casp-12L-lacZ, casp-12S-lacZ, casp-12Δ-lacZ, ICE-lacZ, lacZ. Rat embryonic fibroblast cells (REF) were also transfected with either casp-12L-lacZ or lacZ.
To examine if expression of caspase-12 induces apoptosis, a transient expression system was used to overexpress caspase-12 in mammalian cells. […] Transfected cells are easily detected by staining with X-gal because of the β-galactosidase activity of lacZ. Expression constructs of casp-12L and casp-12S fused with lacZ gene in pcDNA3 vector, which contains the cytomegalovirus (CMV) promoter, were generated. These expression constructs were introduced into Rat-1 cells by transfection, and the expression of the genes were examined 24 hr after transfection using X-gal reaction.
Rat-1, rat embryonic fibroblast cells, NG108-15, HeLa and COS-1 were maintained in culture at 37° C. with 5% CO2 in Dulbecco's modified Eagle's medium containing 10% (v/v) fetal bovine serum (BioWhittaker) and 50 units/ml penicillin and 50 μg/ml streptomycin (Sigma). The day before transfection, cells were seeded at a density of 1.3×10^4 cells/cm^2. Expression constructs were transferred to cells with either calcium phosphate or lipofectamine (GIBCO BRL) as previously described (Miura, M., et al., Cell 75:653-660 (1993); Kumar, S., et al., Genes and Development 8:1613-1626 (1994); Wang, L., et al., Cell 78:739-750 (1994)). The expression of chimeric genes in cells was detected by staining of cells with 5-bromo-4-chloro-3-indolyl β-D-galactoside (X-gal) as previously described (Miura, M., et al., Cell 75:653-660 (1993); Kumar, S., et al., Genes and Development 8:1613-1626 (1994); Wang, L., et al., Cell 78:739-750 (1994)). Immunostaining of transfected cells was done as previously described using mouse monoclonal anti-lacZ antibody (Miura, M., et al., Cell 75:653-660 (1993); Kumar, S., et al., Genes and Development 8:1613-1626 (1994); Wang, L., et al., Cell 78:739-750 (1994)).

Molecule: O=C(O)c1cc(SSc2ccc([N+](=O)[O-])c(C(=O)O)c2)ccc1[N+](=O)[O-] [5,5′-dithio-bis(2-nitrobenzoic acid)]
- inhibition of proteolytic activity of caspase-12Δ2 by pretreatment with thiol reagent (caspase-12Δ2): completely inhibited

Molecule: caspase-2 (E. coli lysate, expressed from pET-15b)
- in vitro cleavage of [35S]-labeled caspase-12 precursor by E. coli lysate containing the caspase [1]: Cleavage of pro-caspase-12 by caspase-2 generated a fragment of about 40 kDa at a lower cleavage efficiency, compared to caspase-3 digestion

Molecule: NC(=O)CI [iodoacetamide]
- inhibition of proteolytic activity of caspase-12Δ2 by pretreatment with thiol reagent (caspase-12Δ2): completely inhibited

Molecule: caspase-3 (E. coli lysate, expressed from pET-15b)
- in vitro cleavage of the [35S]-labeled truncated form [2]: Caspase-3 treatment of the truncated form did not produce any smaller fragments
- in vitro cleavage of [35S]-labeled caspase-12 precursor by E. coli lysate containing the caspase [1]: caspase-2 and caspase-3 can cleave pro-caspase-12 protein, generating smaller fragments of about 40 kDa

Molecule: Bcl-2: mammalian cell death suppressor, homolog of C. elegans ced-9
- magnitude of bcl-2 suppression against toxicity of casp-12 overexpression (Rat-1/bcl-2; 60% for Rat-1 versus 50% for Rat-1/bcl-2): about 10%
- inhibition of cell death induced by overexpression of casp-12 (Rat-1/bcl-2; Rat-1/bcl-2, FIG. 5A): only very weakly inhibited

B1: caspase-12S: alternatively spliced short form of caspase-12, 349 amino acid residues (SEQ ID NO:14) (protein)
chain: MAARRTHERDPIYKIKEFSNDEDDGPQKICTPSSPSESKRKVEDDEMEVNAGLAHESHLMLTAPHGLQSSEVQDTLKLCPRDQFCKIKTERAKEIYPVMEKEGRTRLALIICNKKFDYLFDRDNADTDILNMQELLENLGYSVVLKENLTAQEMETELMQFAGRPEHQSSDSTFLVFMSHGILEGICGVKHRNKKPDVLHDDTIFKIFNNSNCRSLRNKPKILIMQACRGRYNGTIWVSTNKGIATADTDEERVLSCKWNNSITKAHVETDFIAFKSSTPHNISWKVGKTGSLFISKLIDCFKKYCWCYHLEEIFRKVQHSFEVPGELTQMPTIERVSMTRYFYLFPGN
modifications: lacZ fusion
- percentage of cell death (round blue cells among total blue cells) (Rat-1 cells): about 60%

B2: caspase-12Δ: truncated caspase-12, amino acid residues 95-419 of SEQ ID NO:2 (protein)
chain: GPQKICTPSSPSESKRKVEDDEMEVNAGLAHESHLMLTAPHGLQSSEVQDTLKLCPRDQFCKIKTERAKEIYPVMEKEGRTRLALIICNKKFDYLFDRDNADTDILNMQELLENLGYSVVLKENLTAQEMETELMQFAGRPEHQSSDSTFLVFMSHGILEGICGVKHRNKKPDVLHDDTIFKIFNNSNCRSLRNKPKILIMQACRGRYNGTIWVSTNKGIATADTDEERVLSCKWNNSITKAHVETDFIAFKSSTPHNISWKVGKTGSLFISKLIDCFKKYCWCYHLEEIFRKVQHSFEVPGELTQMPTIERVSMTRYFYLFPGN
modifications: lacZ fusion
- percentage of cell death (round blue cells among total blue cells) (Rat-1 cells): 60%
